The record followed here is the supplement of paper PMC9112550, “Optimization of the antimicrobial peptide Bac7 by deep mutational scanning” (BMC Biology, 2022).
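Also: peptides expressed intracellularly from a pBAD plasmid library in pooled LB shake-flask culture, induced with 0.3% L-arabinose, DNA abundance read by NGS, three biological replicates, DESeq2 with apeglm shrinkage.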

In this data set the test system is Escherichia coli TOP10. Briefly: shrunken log2 fold change of peptide-encoding DNA abundance (4.5 h post-induction vs induction); higher = less antimicrobial activity (less host growth inhibition). The following applies: time post-induction: 4.5 h; library: site-saturation at positions 5, 18, 19, 20.
Regarding RRIRIRPPRLPRPRPRPWPSPRP, the “shrunken log2 fold change” value was found to be 0.193.
The value for RRIRWRPPRLPRPRPRPTPGPRP was 0.572; that for RRIRERPPRLPRPRPRPLCLPRP was -0.679.
The result for RRIRWRPPRLPRPRPRPVNEPRP reads -0.0791; that for RRIRSRPPRLPRPRPRPWRHPRP, -0.106; that for RRIRHRPPRLPRPRPRPQEMPRP, -0.0755.
Take RRIRERPPRLPRPRPRPCDFPRP: the “shrunken log2 fold change” value was -0.502.
The value for RRIRRRPPRLPRPRPRPLTDPRP was 0.223.
For RRIRVRPPRLPRPRPRPDKIPRP, the “shrunken log2 fold change” value is -0.19.
Regarding RRIRIRPPRLPRPRPRPEHVPRP, the “shrunken log2 fold change” value is -0.0143.
The value for RRIRWRPPRLPRPRPRPVIGPRP was 0.183; that for RRIRRRPPRLPRPRPRPSHPPRP was 0.167.
The value for RRIRMRPPRLPRPRPRPEWTPRP was 0.749.
The value for RRIRIRPPRLPRPRPRPTGLPRP was 0.375; that for RRIRERPPRLPRPRPRPSDNPRP was -1.25; that for RRIRERPPRLPRPRPRPNNLPRP was -1.05.
Take RRIRCRPPRLPRPRPRPEYHPRP: the “shrunken log2 fold change” value is -0.222.
The result for RRIRNRPPRLPRPRPRPDGNPRP reads 0.102.
Take RRIRRRPPRLPRPRPRPNGYPRP: the “shrunken log2 fold change” value was 0.17.
As for RRIRYRPPRLPRPRPRPFGTPRP, the “shrunken log2 fold change” value is -0.158.
Take RRIRCRPPRLPRPRPRPLEFPRP: the “shrunken log2 fold change” value was -0.245.
The value for RRIRIRPPRLPRPRPRPSMDPRP was -0.353; that for RRIRRRPPRLPRPRPRPIGSPRP was 0.318; that for RRIRIRPPRLPRPRPRPTSHPRP was -0.19.
For RRIRWRPPRLPRPRPRPCGKPRP, the “shrunken log2 fold change” value is 0.0489.
The result for RRIRDRPPRLPRPRPRPLMRPRP reads 0.665; that for RRIRARPPRLPRPRPRPNILPRP, -0.00643; that for RRIRCRPPRLPRPRPRPPDPPRP, 0.459.
The value for RRIRGRPPRLPRPRPRPNNCPRP was 0.101; that for RRIRKRPPRLPRPRPRPVMPPRP was 0.244.
The result for RRIRGRPPRLPRPRPRPHPQPRP reads 0.546.
Turning to RRIRWRPPRLPRPRPRPMIAPRP, the “shrunken log2 fold change” value was 0.00921.
Take RRIRHRPPRLPRPRPRPLNQPRP: the “shrunken log2 fold change” value was -0.17.
For the sequence RRIRRRPPRLPRPRPRPERNPRP, the “shrunken log2 fold change” value is -0.085.
RRIRARPPRLPRPRPRPHMCPRP: the “shrunken log2 fold change” value is -0.174.
The result for RRIRKRPPRLPRPRPRPSGEPRP reads 0.0144.
The result for RRIRDRPPRLPRPRPRPRMFPRP reads -0.0535; that for RRIRIRPPRLPRPRPRPLPGPRP, -0.0346.
The value for RRIRPRPPRLPRPRPRPEYKPRP was -0.293; that for RRIRIRPPRLPRPRPRPAHTPRP was -0.588.
For RRIRTRPPRLPRPRPRPQMPPRP, the “shrunken log2 fold change” value stood at 0.588.
The value for RRIRYRPPRLPRPRPRPVPFPRP was -0.348.
Take RRIRERPPRLPRPRPRPYSHPRP: the “shrunken log2 fold change” value turned out to be 0.0583.
As to RRIRNRPPRLPRPRPRPSEPPRP, the “shrunken log2 fold change” value was -0.0146.
The result for RRIRFRPPRLPRPRPRPWKWPRP reads -0.0196; that for RRIRPRPPRLPRPRPRPQGWPRP, 0.542.
As to RRIRTRPPRLPRPRPRPQTQPRP, the “shrunken log2 fold change” value was -0.0967.
As for RRIRNRPPRLPRPRPRPWCIPRP, the “shrunken log2 fold change” value was -0.573.
The value for RRIRFRPPRLPRPRPRPWVAPRP was -0.139; that for RRIRNRPPRLPRPRPRPQQTPRP was -0.0918.
The result for RRIRIRPPRLPRPRPRPRPDPRP reads 0.0926; that for RRIRNRPPRLPRPRPRPGYKPRP, 0.0376; that for RRIRQRPPRLPRPRPRPIMSPRP, 0.0933.
Take RRIRSRPPRLPRPRPRPFDNPRP: the “shrunken log2 fold change” value was 0.0211.
The result for RRIRQRPPRLPRPRPRPNQGPRP reads 0.084.
The value for RRIRIRPPRLPRPRPRPYGWPRP was -0.0644.
Take RRIRRRPPRLPRPRPRPRQEPRP: the “shrunken log2 fold change” value turned out to be 0.123.
With RRIRKRPPRLPRPRPRPKSMPRP, the “shrunken log2 fold change” value is 0.375.
With RRIRARPPRLPRPRPRPNMQPRP, the “shrunken log2 fold change” value came to 0.18.
The result for RRIRNRPPRLPRPRPRPMDSPRP reads -0.0507; that for RRIRCRPPRLPRPRPRPWCTPRP, 0.023.
The value for RRIRNRPPRLPRPRPRPGNLPRP was -0.186.
On to RRIRARPPRLPRPRPRPSLLPRP, for which the “shrunken log2 fold change” value came to 0.321.
The result for RRIRQRPPRLPRPRPRPANMPRP reads -0.242; that for RRIRSRPPRLPRPRPRPQLLPRP, -0.182.
In the case of RRIRWRPPRLPRPRPRPTKAPRP, the “shrunken log2 fold change” value amounted to 0.122.
On to RRIRLRPPRLPRPRPRPAPPPRP, for which the “shrunken log2 fold change” value is 0.676.
As to RRIRPRPPRLPRPRPRPMREPRP, the “shrunken log2 fold change” value came out at 1.07.
The value for RRIRKRPPRLPRPRPRPDTAPRP was 0.154; that for RRIRDRPPRLPRPRPRPIGRPRP was 0.00739.
On to RRIRFRPPRLPRPRPRPFKPPRP, for which the “shrunken log2 fold change” value is -0.147.
Regarding RRIRRRPPRLPRPRPRPSHTPRP, the “shrunken log2 fold change” value was determined as 0.278.
Turning to RRIRLRPPRLPRPRPRPKPIPRP, the “shrunken log2 fold change” value was 0.111.
Turning to RRIRSRPPRLPRPRPRPVFFPRP, the “shrunken log2 fold change” value amounted to 0.142.
Consider RRIRFRPPRLPRPRPRPLDFPRP, for which the “shrunken log2 fold change” value is -0.325.
The value for RRIRARPPRLPRPRPRPNIIPRP was -0.248; that for RRIRARPPRLPRPRPRPCDCPRP was -0.21; that for RRIRGRPPRLPRPRPRPWNAPRP was 0.109.
The value for RRIRWRPPRLPRPRPRPMMHPRP was 0.159; that for RRIRPRPPRLPRPRPRPNEKPRP was 0.023.
Take RRIRNRPPRLPRPRPRPSNLPRP: the “shrunken log2 fold change” value is -0.457.
The value for RRIRTRPPRLPRPRPRPRLLPRP was 0.0778; that for RRIRRRPPRLPRPRPRPRSHPRP was -0.033; that for RRIRNRPPRLPRPRPRPIYYPRP was -0.977.
The result for RRIRGRPPRLPRPRPRPKSMPRP reads 0.366; that for RRIRDRPPRLPRPRPRPLMQPRP, 0.823; that for RRIRGRPPRLPRPRPRPAHFPRP, 0.238.
The result for RRIRLRPPRLPRPRPRPRIRPRP reads 0.103; that for RRIRERPPRLPRPRPRPGPAPRP, 0.439; that for RRIRYRPPRLPRPRPRPKPGPRP, 0.221.
As for RRIRIRPPRLPRPRPRPTMVPRP, the “shrunken log2 fold change” value is -0.719.
